Data reported in paper PMC4164354.
Where “and” joins values, the source holds several entries; their conditions need not be identical. Equal values may be shown once.

Key:
[1] = target: native monomeric bovine lactoferrin (NM-bLf) (bovine); test: SDS-PAGE; NM-bLf stored at high concentration; denaturing SDS-PAGE; data not shown
[2] = target: bovine lactoferrin purified from bovine colostrum as the high molecular weight biomacromolecular complex (HMW-bLf) (bovine); test: SDS-PAGE and Western blot; 3 mg mL^-1 HMW-bLf in 50 mM Tris HCl pH 7.5 with 1 M NaCl, 1 day at 37°C; gradient SDS-PAGE (reducing gel), blot probed with goat anti-bLf

native monomeric bovine lactoferrin (NM-bLf) (natural protein)
stoichiometry N [1]: 3 and 2

bovine lactoferrin purified from bovine colostrum as the high molecular weight biomacromolecular complex (HMW-bLf) (natural protein)
stoichiometry N [2]: 2
